4 molecules from paper PMC5788916, “The SAM domain of mouse SAMHD1 is critical for its activation and regulation” (Nature Communications, 2018) can be followed below.

Data set [1] deals with full-length mouse SAMHD1 (mSAMHD1), wild type (mouse) (UniProt Q60710). The data set is described as follows: AUC; sedimentation velocity, 0.8-1.3 mg/mL, 20 °C, 50 mM Tris-HCl pH 8.0, 150 mM NaCl, 5 mM MgCl2, 0.5 mM TCEP; protein alone, no nucleotides added.
For data set [2] the target is unchanged. The data set is described as follows: crystal structure; No-Allo (0-Allo): crystallised without nucleotides; space group C2, 4 copies in the asymmetric unit; 3.5 Å.
The target is the same in data set [3]. The data set is described as follows: SEC; Superdex 200 10/300 GL; 2 mg/ml, 200 ul; 50 mM Tris-HCl pH 8.0, 150 mM NaCl, 5 mM MgCl2, 0.5 mM TCEP; no nucleotides added. (In general: Size exclusion chromatography separates by hydrodynamic size, large species first.)
For data set [4] the target is unchanged. The data set is described as follows: AUC; sedimentation velocity, 0.8-1.3 mg/mL, 20 °C, 50 mM Tris-HCl pH 8.0, 150 mM NaCl, 5 mM MgCl2, 0.5 mM TCEP; with 150 uM nucleotides (dGTP-α-S).
Data set [5] has the same target. The data set is described as follows: SEC; Superdex 200 10/300 GL; 2 mg/ml, 200 ul; 50 mM Tris-HCl pH 8.0, 150 mM NaCl, 5 mM MgCl2, 0.5 mM TCEP; after addition of dGTP-α-S (methods: nucleotide 4 mM final); read-out: assembly of monomers or dimers into tetramers.
Data set [6] shares this target. The data set is described as follows: not stated; up to 24 h of assembly with dGTP-α-S (Supplementary Fig. 1a).
For data set [7] the target is unchanged. Kind of data set: crystal structure; 1-Allo: co-crystallised with 4 mM dGTP-α-S; space group P2(1)2(1)2, 2 copies in the asymmetric unit; 3.4 Å.
The target is the same in data set [8]. Kind of data set: AUC; sedimentation velocity, 0.8-1.3 mg/mL, 20 °C, 50 mM Tris-HCl pH 8.0, 150 mM NaCl, 5 mM MgCl2, 0.5 mM TCEP; with 150 uM nucleotides (dGTP-α-S). This is another data set of the same source.
Data set [9] has the same target. The data set is described as follows: SEC; Superdex 200 10/300 GL; 2 mg/ml, 200 ul; 50 mM Tris-HCl pH 8.0, 150 mM NaCl, 5 mM MgCl2, 0.5 mM TCEP; after addition of dGTP-α-S (methods: nucleotide 4 mM final); read-out: assembly of monomers or dimers into tetramers. The source holds these as a separate data set.
The target in data set [10] is mouse SAMHD1 HD domain, isoform 2 (residues 145-651) (mouse). Kind of data set: AUC; sedimentation velocity, 0.8-1.3 mg/mL, 20 °C, 50 mM Tris-HCl pH 8.0, 150 mM NaCl, 5 mM MgCl2, 0.5 mM TCEP; protein alone, no nucleotides added.
The target is the same in data set [11]. The data set is described as follows: AUC; sedimentation velocity, 0.8-1.3 mg/mL, 20 °C, 50 mM Tris-HCl pH 8.0, 150 mM NaCl, 5 mM MgCl2, 0.5 mM TCEP; with 150 uM nucleotides (dGTP-α-S).
Data set [12] has the same target. The data set is described as above. The source holds these as a separate data set.
The target is the same in data set [13]. Kind of data set: SEC; Superdex 200 10/300 GL; 2 mg/ml, 200 ul; 50 mM Tris-HCl pH 8.0, 150 mM NaCl, 5 mM MgCl2, 0.5 mM TCEP; after addition of dGTP-α-S (methods: nucleotide 4 mM final); read-out: assembly of monomers or dimers into tetramers.
Data set [14] concerns the molecule itself. The description is as above.
Data set [15] concerns the molecule itself. Kind of data set: AUC; sedimentation velocity, 0.8-1.3 mg/mL, 20 °C, 50 mM Tris-HCl pH 8.0, 150 mM NaCl, 5 mM MgCl2, 0.5 mM TCEP; protein alone, no nucleotides added.

Values joined by “and” are separate entries in the source; they are usually repeats but may differ in a detail not shown here. Equal entries are not always repeated.

For the molecule “full-length mouse SAMHD1 (mSAMHD1), wild type (from UniProt Q60710 1-658) (enzyme)”, the stoichiometry N is 2 and 4 in [1]; 4 in [2]; 2 and 4 in data set [3]; 2 in [4]; 4 in data set [5]; 4 in [6]. In addition, the stoichiometry N in data set [7] worked out at 4; in data set [8], 4; in data set [9], 2.
Take “mouse SAMHD1 HD domain, isoform 2 (residues 145-651) (domain or fragment)”: the stoichiometry N amounted to 2 in data set [10], 4 in [11], 2 in data set [12] and 4 in data set [13].

B1: mouse SAMHD1 HD domain, isoform 1 (residues 145-658) (domain or fragment, UniProt Q60710 145-658, looked up)
chain: DLMKVFNDPIHGHIEFHPLLIRIIDTPQFQRLRYIKQLGGGYYVFPGASHNRFEHSLGVGYLAGCLVRALAEKQPELQISERDILCVQIAGLCHDLGHGPFSHMFDGRFIPRARPEKKWKHEQGSIEMFEHLVNSNELKLVMKNYGLVPEEDITFIKEQIMGPPITPVKDSLWPYKGRPATKSFLYEIVSNKRNGIDVDKWDYFARDCHHLGIQNNFDYKRFIKFARICEVEYKVKEDKTYIRKVKHICSREKEVGNLYDMFHTRNCLHRRAYQHKISNLIDIMITDAFLKADPYVEITGTAGKKFRISTAIDDMEAFTKLTDNIFLEVLHSTDPQLSEAQSILRNIECRNLYKYLGETQPKREKIRKEEYERLPQEVAKAKPEKAPDVELKAEDFIVDVINVDYGMEDKNPIDRVHFYCKSNSKQAVRINKEQVSQLLPEKFAEQLIRVYCKKKDGKSLDAAGKHFVQWCALRDFTKPQDGDIIAPLITPLKWNNKTSSCLQEVSKVKTCLKF
notes: mouse SAMHD1 isoform 1, HD domain without the SAM domain, residues 145-658; The text speaks of 'mHD' and gives limits for both isoforms; source: E. coli BL21 (DE3), purified (Ni-NTA, size-exclusion chromatography)
Turning to B1, the “stoichiometry N” value in data set [14] was found to be 4; in [15] it was 2.

B2: human SAMHD1 L77F/C80F/H111R triple mutant (FFR) (enzyme, UniProt Q9Y3Z3 1-626, looked up)
chain: MQRADSEQPSKRPRCDDSPRTPSNTPSAEADWSPGLELHPDYKTWGPEQVCSFLRRGGFEEPVLLKNIRENEITGAFLPFLDESRFENLGVSSLGERKKLLSYIQRLVQIRVDTMKVINDPIHGHIELHPLLVRIIDTPQFQRLRYIKQLGGGYYVFPGASHNRFEHSLGVGYLAGCLVHALGEKQPELQISERDVLCVQIAGLCHDLGHGPFSHMFDGRFIPLARPEVKWTHEQGSVMMFEHLINSNGIKPVMEQYGLIPEEDICFIKEQIVGPLESPVEDSLWPYKGRPENKSFLYEIVSNKRNGIDVDKWDYFARDCHHLGIQNNFDYKRFIKFARVCEVDNELRICARDKEVGNLYDMFHTRNSLHRRAYQHKVGNIIDTMITDAFLKADDYIEITGAGGKKYRISTAIDDMEAYTKLTDNIFLEILYSTDPKLKDAREILKQIEYRNLFKYVGETQPTGQIKIKREDYESLPKEVASAKPKVLLDVKLKAEDFIVDVINMDYGMQEKNPIDHVSFYCKTAPNRAIRITKNQVSQLLPEKFAEQLIRVYCKKVDRKSLYAARQYFVQWCADRNFTKPQDGDVIAPLITPQKKEWNDSTSVQNPTRLREASKSRVQLFKDDPM
notes: human SAMHD1 with three SAM domain residues changed to their mouse counterparts; compared with full-length WT hSAMHD1; also called FFR mutant; source: purified
Take B2: the “stoichiometry N” value in data set [14] was found to be 4.

For orientation: stoichiometry N means a count of units in the complex or per binding partner.
